± gives the uncertainty stated by the source.
Assay: amyloid nucleation score (Sup35N fusion, yeast selection) (log enrichment); library NNK3; higher = more nucleation; inactive = no reads after selection
Summary of the method: (§1)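 Plasmid inserts were Illumina-sequenced at input and output from psi-negative yeast expressing Sup35N fused to peptides of 20 random codons. The yeast were induced with 100 μM copper sulfate for 24 hours and grown 7 days at 30°C on medium lacking adenine and uracil, and sequences with under 100 input reads were excluded. Nucleation score is the DiMSum log enrichment of output over input reads, centred on the mode score of non-aggregating sequences.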
For YLTCDKTNVNGFMI, the amyloid nucleation score was “inactive”.
In the case of YLTGTMSVEFRPHGMPNLSK, the amyloid nucleation score is reported as 1.82 ± 0.08.
In the case of YLTSFRFYVFTFR, the amyloid nucleation score is reported as “inactive”.
With YLVMTSLIC the amyloid nucleation score was “inactive”.
With YLVRLVSDITRKNR the amyloid nucleation score was 2.37 ± 0.071.
With YLWRQYYALFCYCFWNLKGP the amyloid nucleation score was “inactive”.
In the case of YLYMG, the amyloid nucleation score is reported as “inactive”.
For YLYNRSMRVPLMSRKLFGGD, the amyloid nucleation score was “inactive”.
In the case of YLYRFLPVQTRPLMHATSYI, the amyloid nucleation score is reported as “inactive”.
With YMGCMTVW the amyloid nucleation score was “inactive”.
With YMGEVCCIVVVTDHLCTVVI the amyloid nucleation score was “inactive”.
Substance YMLIKYGSL has an amyloid nucleation score of 0.449 ± 0.35.
For YMRDVDFIRSEGG, the amyloid nucleation score was “inactive”.
In the case of YMYQLKYYASEMNWVYSYSI, the amyloid nucleation score is reported as “inactive”.
In the case of YNCFDDNTYPYSANGSRNSL, the amyloid nucleation score is reported as “inactive”.
For YNDNSNCSARMGLI, the amyloid nucleation score was “inactive”.
In the case of YNFGLVNV, the amyloid nucleation score is reported as “inactive”.
In the case of YNRFLVVSGMGMSFYGKQYM, the amyloid nucleation score is reported as 1.51 ± 0.074.
In the case of YNRLIMSSELSMIGTTCISY, the amyloid nucleation score is reported as “inactive”.
With YNTRGQSSFSPCEIMWLVHI the amyloid nucleation score was “inactive”.
In the case of YPDNIFFCQSN, the amyloid nucleation score is reported as “inactive”.
In the case of YPLDTVGFWEESKLFVGRGG, the amyloid nucleation score is reported as “inactive”.
In the case of YPNIERFTETWISYVDQNRG, the amyloid nucleation score is reported as -0.083 ± 0.58.
With YPPTGMIWIRILVSV the amyloid nucleation score was “inactive”.
With YPRTSFRFKGCDKEVVSDLL the amyloid nucleation score was “inactive”.
In the case of YPSGVYKFFAASATCWIM, the amyloid nucleation score is reported as “inactive”.
With YPYCKKGWCDMKTKGRSKEG the amyloid nucleation score was “inactive”.
In the case of YQESKYIS, the amyloid nucleation score is reported as “inactive”.
YQGAFS gave an amyloid nucleation score of 0.341 ± 0.83.
In the case of YQQSIVHVRRFTYRRAPVVA, the amyloid nucleation score is reported as -0.46 ± 1.9.
For YRAYYSYSFRW, the amyloid nucleation score was “inactive”.
With YRCYVVVSCWIHLNIKWLMY the amyloid nucleation score was “inactive”.
In the case of YRFRRDNLWCTWSSYMYMYC, the amyloid nucleation score is reported as “inactive”.
For YRLCLDSCIKIYLQGWVYVY, the amyloid nucleation score was “inactive”.
In the case of YRLPMILKFLNWGFSYLVPF, the amyloid nucleation score is reported as “inactive”.
For YRLRSICSFLGVVSYG, the amyloid nucleation score was “inactive”.
In the case of YRNRTVFALSGLSQGDLPEV, the amyloid nucleation score is reported as “inactive”.
For YRPGW, the amyloid nucleation score was “inactive”.
In the case of YRPYC, the amyloid nucleation score is reported as “inactive”.
In the case of YRRELAKSHLYMSIWRNRLP, the amyloid nucleation score is reported as “inactive”.
For YRRKVELIRSLRW, the amyloid nucleation score was “inactive”.
In the case of YRRYPVIR, the amyloid nucleation score is reported as “inactive”.
Work on YRSRLYNCFFGQFYMSLTNM yielded an amyloid nucleation score of 2.07 ± 0.064.
For YRVWTVYRVYILAGTKNIRS, the amyloid nucleation score was “inactive”.
In the case of YRWGRVYPSAFSLCKLRYKL, the amyloid nucleation score is reported as “inactive”.
With YSAAEDVKWVLGFCYAGFNS the amyloid nucleation score was “inactive”.
With YSAQFITSIGLGQKLFS the amyloid nucleation score was “inactive”.
In the case of YSCAKRTRVGTRSSRKVSLA, the amyloid nucleation score is reported as “inactive”.
Work on YSCTFYTLCPENI yielded an amyloid nucleation score of 1.85 ± 0.07.
For YSCVVL, the amyloid nucleation score was “inactive”.
For YSDWDIYWIFMFGAGRFFMY, the amyloid nucleation score was 3.06 ± 0.068.
With YSDWELVSGVQLA the amyloid nucleation score was “inactive”.
In the case of YSFMKP, the amyloid nucleation score is reported as “inactive”.
With YSFRCVSTSVNGNRVMAAVS the amyloid nucleation score was “inactive”.
YSFRNSIDAFRLEYKKRYRF showed an amyloid nucleation score of -0.403 ± 0.93.
For YSGSCNFVQVSVFKHWSGVY, the amyloid nucleation score was “inactive”.
With YSGSNCLSSDEYWWRDDSLT the amyloid nucleation score was “inactive”.
With YSIDLFIRESDFDVHKKHIS the amyloid nucleation score was “inactive”.
In the case of YSILYKSYYLRMHWVVASRL, the amyloid nucleation score is reported as “inactive”.
For YSMQVICISCVLRIDIGDVA, the amyloid nucleation score was 0.89 ± 0.16.
In the case of YSRDIYVLEHV, the amyloid nucleation score is reported as “inactive”.
In the case of YSRLTLVAEPFYNMGVKNLM, the amyloid nucleation score is reported as “inactive”.
In the case of YSSARTFSLHCIERLYSGYV, the amyloid nucleation score is reported as “inactive”.
In the case of YSSGSFCLFKWSIHR, the amyloid nucleation score is reported as 1.65 ± 0.065.
With YSSLW the amyloid nucleation score was “inactive”.
Work on YSTCDLGLHIGAQQERYGLG yielded an amyloid nucleation score of 0.253 ± 0.37.
For YSTFLFQGYLFLEPEYSGCR, the amyloid nucleation score was “inactive”.
With YSTRPSYFLDLMLYIDTWVQ the amyloid nucleation score was “inactive”.
For YSVDGICTRAVLGPVDWVNG, the amyloid nucleation score was “inactive”.
For YSVFAVFILRHGSRILY, the amyloid nucleation score was “inactive”.
Substance YSWGRWICHNVVE has an amyloid nucleation score of -0.21 ± 0.74.
For YSWVKEYLSLLSYYCNYRVD, the amyloid nucleation score was “inactive”.
YTERYS showed an amyloid nucleation score of -0.265 ± 0.96.
With YTFTRV the amyloid nucleation score was “inactive”.
For YTGSVRFVEM, the amyloid nucleation score was “inactive”.
For YTIALTRGLKFMVINCRTFY, the amyloid nucleation score was “inactive”.
In the case of YTIVLLYERFQLAPTTMWMC, the amyloid nucleation score is reported as “inactive”.
In the case of YTLLCNPMVSKSARRLLNWI, the amyloid nucleation score is reported as “inactive”.
In the case of YTLRCDFLRNTA, the amyloid nucleation score is reported as “inactive”.
In the case of YTNHFVDLGMVKLVLFTWNM, the amyloid nucleation score is reported as 1.63 ± 0.11.
For YTPRFMISSWVLRDFIHGVS, the amyloid nucleation score was “inactive”.
In the case of YTPVIKCSYFTSIIGWAGPA, the amyloid nucleation score is reported as “inactive”.
For YTTKRL, the amyloid nucleation score was “inactive”.
YTVSFYIQLCTDRQISHRGI gave an amyloid nucleation score of 2.34 ± 0.071.
With YTYECRCH the amyloid nucleation score was “inactive”.
For YVAIMLAKSKTRS, the amyloid nucleation score was “inactive”.
For YVCCHERWVGFYSGK, the amyloid nucleation score was “inactive”.
With YVDNLACLNSFPIMPVFKVG the amyloid nucleation score was “inactive”.
For YVDPRGVTVSWMSIYSRRAL, the amyloid nucleation score was “inactive”.
In the case of YVFFLSLNIKPMLYTTLVGV, the amyloid nucleation score is reported as -0.138 ± 0.51.
With YVKMWHGFYFDRGNGRRDLN the amyloid nucleation score was “inactive”.
For YVLLVWDCRLFSVRISFRSV, the amyloid nucleation score was “inactive”.
In the case of YVRSYLILS, the amyloid nucleation score is reported as “inactive”.
YVVNFVLL gave an amyloid nucleation score of 2.43 ± 0.085.
With YVYSRVMECKDRHYETYFVA the amyloid nucleation score was “inactive”.
For YWGIVVILSGDLRGYDH, the amyloid nucleation score was “inactive”.
In the case of YWMNERLTSSKYDAGR, the amyloid nucleation score is reported as “inactive”.
With YWNMKNFCSTTIIHRKGRFG the amyloid nucleation score was 0.65 ± 0.16.
For YWSGRIKGTR, the amyloid nucleation score was “inactive”.
YWVCPIGFFNCWLNRMTRLM gave an amyloid nucleation score of 1.59 ± 0.12.
With YYALKYVNLQLNKRNVTRWV the amyloid nucleation score was “inactive”.
In the case of YYFDDVTLKASTRDRVLARG, the amyloid nucleation score is reported as “inactive”.
With YYIYIYMCRLLVYIGFHFYW the amyloid nucleation score was “inactive”.
For YYLGLLTYRWGLRFFYLIVS, the amyloid nucleation score was “inactive”.
With YYLVSSMFYMFQSNEVNGNM the amyloid nucleation score was “inactive”.
YYLVYPRNIIMYKGNNFLKP showed an amyloid nucleation score of 2.24 ± 0.063.

Assay: amyloid nucleation score (Sup35N fusion, yeast selection) (log enrichment); library NNK2; higher = more nucleation; inactive = no reads after selection
Summary of the method: as §1
AADSRYGGNGCFRSMLFALI gave an amyloid nucleation score of 0.817 ± 0.45.
For AAFLNWVVCEIENEEGMSWL, the amyloid nucleation score was “inactive”.
For AAFTRTSP, the amyloid nucleation score was 0.858 ± 0.27.
Work on AAILFSGDVLCLLRCYIAIK yielded an amyloid nucleation score of -0.291 ± 0.74.
In the case of AAIRH, the amyloid nucleation score is reported as -0.328 ± 0.49.
With AASNQMSQ the amyloid nucleation score was “inactive”.
AASRWVVSHKYRWWMMRLMK showed an amyloid nucleation score of 0.302 ± 0.23.
AASWTPSCNCPPWVFHGWLL gave an amyloid nucleation score of 0.16 ± 0.8.
Work on ACDVDAMFTKMYSIFFR yielded an amyloid nucleation score of 0.479 ± 0.62.
Substance ACHRFYLMKSML has an amyloid nucleation score of 1.28 ± 0.36.
With ACNFQVCGWERQSSRFR the amyloid nucleation score was 3.14 ± 0.087.
In the case of ACQYLGLETPKWCGINRWGL, the amyloid nucleation score is reported as 0.324 ± 0.26.
ACRLVYNLGRVHLGNHSDIL showed an amyloid nucleation score of -0.225 ± 1.

Source: the supplement of paper PMC12042874
